According to the nanobody polyreactivity screen of Harvey et al. (2022):

Assay: yeast display, Sf9 membrane polyspecificity reagent, FACS + sequencing; frameworks hold sequencing errors
How it was run: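 After 36–48 hours of galactose induction, yeast (Saccharomyces cerevisiae BJ5465) displaying a synthetic nanobody library were stained at 4 °C for 1 hour with 10% biotinylated, detergent-solubilized Sf9 membrane reagent. Streptavidin microbeads enriched the stained cells before FACS sorting into low and high (top ~1%) gates on anti-HA and streptavidin fluorescence. Each clone's polyreactivity label reflects its gate of origin.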

Row | Sequence | polyreactivity (PSR sort gate)
1 | QVQLVESGGGLVQAGGSLRLSCAASGFNFLGNAMGWYRQAPGKERELVAAISSGGSTYADSVKGRFTISRDNAKNTVYLQMISLKPEDTAVYYCAVDRAFRAQNYHEYEYWGQGTQVTVSS | low polyreactivity
2 | QVQLVESGGGLVQAGGSLRLSCAASGFNFPRYVMGWYRQAPGKERELVAAINSDISTNYADSVKGRFTISRDNANNSVYLQMTSLKPEDTAVFYCADERWDDPWEFDSWGQCTQVTVSS | low polyreactivity
3 | QVQLVESGGGLVQAGGSLRLSCAASGFNFPYYAMGWYRQAPGKERELVAAISSSGGSTYYADSVKGRFTISRDNAKNTVYLHMNSLKPEDTAVYYCAADAYSGYSDYYWGQGTQVTVSS | low polyreactivity
4 | QVQLVESGGGLVQAGGSLRLSCAASGFNFRFYAMGWYRQAPGKERELVAVITWSGGRTYYADSVKGRFTISRDNAKNTVYLQMNSLKPEDTAVYYCAAKRGKTYQRFDYWGQGTQVTVSS | high polyreactivity
5 | QVQLVESGGGLVQAGGSLRLSCAASGFNFRVNAMGWYRQAPGKERELVAAITKSGGSTYYADSVKGRFTISRDNAKNTVYLQMNSLKPEDTAVYYCNVVWQYSTYVRYNYWGQGTQVTVSS | low polyreactivity
6 | QVQLVESGGGLVQAGGSLRLSCAASGFNFSDYDMGWYRQAPGKERELVAAITYSGCSTYYADSVKGRFTISRDNAKKTVYLQMNSLKPEDTAVYYCAAVKSRYAEAVDYYYWGQGTQVTVSS | low polyreactivity
7 | QVQLVESGGGLVQAGGSLRLSCAASGFNIGRNAMGWYRQAPGKERELVAGISISGGSTYYADSVKGRFTISRDNAKNTVYLQMNSLKPEDTAVYYCAAEYAYSLDPEEDYWGQGTQVTVSS | high polyreactivity
8 | QVQLVESGGGLVQAGGSLRLSCAASGFNIIPYDMGWYRQAPGKEMDLVATISRGGSTNYADSVKGRFTISRDNAKNTVYLQMNSLKPEDTAVYYCAAEYKVVFSQPYGEYDYWGQGTQVTVSS | low polyreactivity
9 | QVQLVESGGGLVQAGGSLRLSCAASGFNITYVMGWYRQAPGKERELVAVITNGGSTYYADSVKGRFTISRDNAMNTVYLLMNSLKPEDTAVYYCAARARFRYDSYYYWGQGTQLTVSS | high polyreactivity
10 | QVQLVESGGGLVQAGGSLRLSCAASGFNIYYYTMGWYRQAPGKERELVAAISKSGGNTYYADSVKGRFTISRDNAKNTVYLQMNSLKPEDTAVYYCAASRYNTVTYYYWGQGTQVTVSS | high polyreactivity
11 | QVQLVESGGGLVQAGGSLRLSCAASGFNYYTMGWYRQAPGKERELVAAINYSGGRTYYADSVKGRFTISRDNAKNTVYLQMNSLKPEDTAVYYCNTARSPYDHRPERSYDYWGQGTQVTVSS | high polyreactivity
12 | QVQLVESGGGLVQAGGSLRLSCAASGFPFAKNAMGWYRQAPGKERELVAVITSSGGSTYYADSVKGRFTISRDNAKNTVYLQMNCLKPEDTAVYYCNVAYYYRSRSTGYEYWGQGTQVTVSS | high polyreactivity
13 | QVQLVESGGGLVQAGGSLRLSCAASGFPFSRYARGWSRQAPGTERELVATITARGGTTYYADSVKGRFTISRDNAKNTVYLQMNSLKPEDTAVYYCNAKAYYRPYYDYDYGGQGTQVTVSS | high polyreactivity
14 | QVQLVESGGGLVQAGGSLRLSCAASGFSFLQYVMGWYSQAPGKERELFAAITSGGSTYYADSVKGRFTISRDNAKNTVYLQMNSLKPDDTAVYYCATDVADNTFYALYGSDYWGQCTQVTVSS | low polyreactivity
15 | QVQLVESGGGLVQAGGSLRLSCAASGFSFRYYTMGWYRPAPGKERELVARITWSGRITDYADSVKGRFTISRDNPKNTVYLQMNSLKPEDTAVSYCNAERRWAAYDYCGQGTQVTVSS | high polyreactivity
16 | QVQLVESGGGLVQAGGSLRLSCAASGFSFSRNAKGWYRQAPGKERELVAAISIRGGSTYYADSVKGRFTISRDNAKNTVYLQMNILKPEDTAVYYCNAYDLYRQRNGYGYWGQGTQVTVSS | high polyreactivity
17 | QVQLVESGGGLVQAGGSLRLSCAASGFSFSRYAMGWYRQAPGKDRELVATITSGGGGTYYADSVKGRFTISRDNAKNTVYLQKNSLKPEDTAVYYCAKYSPYYRNGLDYWGHGTQVTVSS | high polyreactivity
18 | QVQLVESGGGLVQAGGSLRLSCAASGFSFVYYAMGWYRQAPGKERELVATISGNGGRTYYADSVKGRFTISRDNAKNTVYLQMNSLKPEDTAVYYCAALLYIRSVGYDYWGQGTQVTVSS | low polyreactivity
19 | QVQLVESGGGLVQAGGSLRLSCAASGFSFYYNTMGWYRQAPWTERELVAAITRSFGSTYYADSVKGSFTIARDHAQNTVYVQMNSLKPEDTAVYFCAARAYYFPKLPADYYWGQGTQVSVSS | high polyreactivity
20 | QVQLVESGGGLVQAGGSLRLSCAASGFSSVRNDMGWYRQAPGKERELVAAISSGDTKDYADSVKGRFTISRDNAKNTVYLQMNSLNPEDTSVYYCAAVYYGRYYYWGQGTQVTVSS | low polyreactivity
21 | QVQLVESGGGLVQAGGSLRLSCAASGFTCKYYTMGWYRQAPGKERELVAAISKSGDITYYADSVKGRFTISRDNAKNTVYLQMNSMKPEDTAVYYCAVVPSSTYHAYDYWGQGTQVTVSS | high polyreactivity
22 | QVQLVESGGGLVQAGGSLRLSCAASGFTFAAYAMGWSRQAPGKERELVAAISRSGGSTYYADSVKGRFTISRDNAKNTVYLQMNSLKPEDTAVYYCAAYGWPKYNYWGQGTQVTVSS | high polyreactivity

Row | Sequence | polyreactivity (PSR sort gate)
23 | QVQLVESGGGLVQAGGSLRLSCAASGFTFAAYAMGWYRQAPGKESELVAAITSRDGTTYYADSVKGRFTISRNNAKNTVYLQMNSLKPEDTAVYYCAKDHFTWGVSEDDYWRQGTQVTVSS | low polyreactivity
24 | QVQLVESGGGLVQAGGSLRLSCAASGFTFAFYAMGWYRQAPGKERELVAAISWDGVTTYYADSVKGRFTISRDHAKNTVYLQMNSQKPEDTAVYYCAADYPDYAGSFWPSGMYYWGQGTQVTVSS | low polyreactivity
25 | QVQLVESGGGLVQAGGSLRLSCAASGFTFAFYAMGWYRQAPGKERELVAAITGSGGSTYYADSVKGRFTISRDNAKNTVYLQMNSLKPEDTAVYYCAADKYLDYDYWGQGTQVTVSS | high polyreactivity
26 | QVQLVESGGGLVQAGGSLRLSCAASGFTFAFYAMGWYRQAPGKERELVDAIRRTGSTNYADSVKGRFTISRDNAKNTVYLQMNSLKPEDNAVYYCAKTLWYDRGVGYWGQGTQVTVSS | high polyreactivity
27 | QVQLVESGGGLVQAGGSLRLSCAASGFTFAFYDMGWYRQAPGKERELVAGISTSDGSTYYADSVKGRFTISRDNAKNTVYLQMNSLKPEDTAVYYCAASYYTYWWGYPVITFDYWGQGTQVTVSS | high polyreactivity
28 | QVQLVESGGGLVQAGGSLRLSCAASGFTFAGNAMGWYRQAPGKERELVAAISRRGGSTYYADSVKGRFTISRDNAKNTVYLQMNSLKPEDTAVYYCAAVYPYDYDYWGQGTQVTVSS | high polyreactivity
29 | QVQLVESGGGLVQAGGSLRLSCAASGFTFAGYAMGWYRQAPGKEMELVAAINYRGVRTYYADSVKGRFTISRDNSKNTVYLQMNSLIPEDTAVYYCAALPFLPGGGYVIHRFYYWGQGSQVTVSS | high polyreactivity
30 | QVQLVESGGGLVQAGGSLRLSCAASGFTFAGYAMGWYRQAPGKERELVAAINRGGSTYYADSVKGRFTISRDNAKNTVYLQMNSLKPEDTAVYYCAKAQRFYGGRMGYWGQGTQVTVST | low polyreactivity
31 | QVQLVESGGGLVQAGGSLRLSCAASGFTFAHNAMGWYRQAPGKERELVAAISSRGGRTFYADSVKGRFTISRDNAKNTVYLQMNSLKPEDTAVYYCNRVRSFQYDYWGQGTQVTVSS | high polyreactivity
32 | QVQLVESGGGLVQAGGSLRLSCAASGFTFAKYAMGWYRQAPGKERELVAAITNSGCRTYYEDSVKGRFTISRDNAKNTVYLQMNSPKPEDTAVYYCATEQLGGSIYDYWGQGTQVTVSS | high polyreactivity
33 | QVQLVESGGGLVQAGGSLRLSCAASGFTFALNAMGWYRQAPGKERELVAAISSRGGSTYYADSVKGRFTISRDNAKNTVYLQMNSLKPEDTAGYYCAKDYKADSRFSPYGYWGQGTQVTVSS | high polyreactivity
34 | QVQLVESGGGLVQAGGSLRLSCAASGFTFALYAMGWYRQAPGKERELVAAITSGGSTNYADSVKGRFTISRDNAKNTVYLLMNSLKPEDTAVYYCAAVPYYRYYSLKGRNNYNYWGQGTQVTVSS | high polyreactivity
35 | QVQLVESGGGLVQAGGSLRLSCAASGFTFANNAMGWYRQAPGKERELVAAITRGDSTYYAESVKGRFTISRDNAKNTVYLQMNSRKPEDTAVYYCAKEWYFPIYDYWGQGTQVTVSS | low polyreactivity
36 | QVQLVESGGGLVQAGGSLRLSCAASGFTFAPNAMGWYRQAPGKEMELVAAISSASSTYYADSVKGRFTISRDNAKNTVYLQMNSLKPEDTAVYYCAARVFKKYRPSGRYYYWGQGSQVTVSS | high polyreactivity
37 | QVQLVESGGGLVQAGGSLRLSCAASGFTFARNTMGWYRQAPGKEREFVAVITNRGGSTYYADSVKGRFTISRDNAKNTVYLQMNSLKPEDTAVYYCAARKKHSGYGRGNYWGQGTQVTVSS | high polyreactivity
38 | QVQLVESGGGLVQAGGSLRLSCAASGFTFARYVMGWYRQAPGKERELVAAISWRGTRTFYADSVKGRFTISRDNAKNTVYLQMNSLKPEDTAVYYCAADSRPPKYDYWGQGTQVTVSS | high polyreactivity
39 | QVQLVESGGGLVQAGGSLRLSCAASGFTFASNAMGWYRQAPGKERELVAGISRTGTTTYYADSVKGRFTISRDNAKNTVYLQMNSLKPEDTAVYYCAKGSNSYLRYHYTYPYDYWGQGTQVTVSS | high polyreactivity
40 | QVQLVESGGGLVQAGGSLRLSCAASGFTFASNDMGWYRQAPGKERELVASITKGGGRTYYADSVKGRFTISRDNAKNTVYLQMNSLKPEDTAVFYCAARQLIKYDYWGQGTQVTVSS | low polyreactivity
41 | QVQLVESGGGLVQAGGSLRLSCAASGFTFASNGRGGYRQAPGKERELVAVIDWSDDSTYYADSVKGRFTISRDNAKNTVYLQMNSLKPEDTAVYYCNADDWWGGYDYWGQGTQVTVSS | low polyreactivity
42 | QVQLVESGGGLVQAGGSLRLSCAASGFTFATYDMGLYRQAPGKERELVAAISRSGGRTYYADSVKVLFTISRDYAKNTVYLQMNSLKPEDTAVYYCAKYVPGYPYDYWGQGTQVTVSS | high polyreactivity
43 | QVQLVESGGGLVQAGGSLRLSCAASGFTFAVNAMGWYRQAPGKERELVAAISWSGVSTYYADSVKRRFTISRDNAKNTVYLQMNSLKPEDTAVYYCARRRTKSYTRKYDYWGQGTQVTVSS | low polyreactivity
